Source: paper PMC4786644, “The HMGB1 protein induces a metabolic type of tumour cell death by blocking aerobic respiration” (Nature Communications, 2016)

Biological target: T1, human pyruvate kinase isoform M2 (PK M2) (human, UniProt P14618-1 1-531)
T1 construct: Pyruvate kinase isoform M2, human; used at 2 uM in solution
Assay: ultrafiltration; equimolar HMGB1 and PK M2 (2 uM each) mixed in 300 ul, filtrated (14000 g, 4 C) to 15 ul in an Amicon Ultra 0.5 ml 30 k device; filtrate and retentate analysed by Western blot; HMGB1 and PKM2 also analysed alone
Details: both partners purified

T1 sequence (P14618 whole entry, canonical isoform): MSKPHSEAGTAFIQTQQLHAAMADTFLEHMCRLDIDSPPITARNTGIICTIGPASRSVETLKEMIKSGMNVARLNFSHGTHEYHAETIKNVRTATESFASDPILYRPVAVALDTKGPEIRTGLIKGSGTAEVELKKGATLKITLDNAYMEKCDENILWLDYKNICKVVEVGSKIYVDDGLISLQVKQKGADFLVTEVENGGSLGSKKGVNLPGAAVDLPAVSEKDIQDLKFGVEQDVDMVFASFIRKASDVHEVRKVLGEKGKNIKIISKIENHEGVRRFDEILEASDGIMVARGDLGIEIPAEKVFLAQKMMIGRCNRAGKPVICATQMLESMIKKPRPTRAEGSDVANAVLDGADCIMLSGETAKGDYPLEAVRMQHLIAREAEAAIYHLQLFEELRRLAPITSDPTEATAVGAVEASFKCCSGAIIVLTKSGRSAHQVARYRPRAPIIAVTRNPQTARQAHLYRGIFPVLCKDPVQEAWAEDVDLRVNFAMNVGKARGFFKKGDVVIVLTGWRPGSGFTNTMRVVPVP

B1: recombinant human HMGB1 protein (high-mobility group box 1) (natural protein, UniProt P09429 1-215, looked up)
chain: MGKGDPKKPRGKMSSYAFFVQTCREEHKKKHPDASVNFSEFSKKCSERWKTMSAKEKGKFEDMAKADKARYEREMKTYIPPKGETKKKFKDPNAPKRPPSAFFLFCSEYRPKIKGEHPGLSIGDVAKKLGEMWNNTAADDKQPYEKKAAKLKEKYEKDIAAYRAKGKPDAAKKGVVKAEKSKKKKEEEEDEEDEEDEEEEEDEEDEDEEEDDDDE
notes: High-mobility group box 1 protein, human, recombinant; the only recombinant human HMGB1 named is from Sigma-Aldrich; also called rhHMGB1; source: bought: Sigma-Aldrich (recombinant human HMGB1; human HMGB1 protein produced in E. coli)
- binding result: binds
